Numbering of substitutions follows the chain as printed.

One data set has as its target T1, RECQL4 427-1116 P532S (Homo sapiens, UniProt O94761 427-1116, P532S).
T1 sequence: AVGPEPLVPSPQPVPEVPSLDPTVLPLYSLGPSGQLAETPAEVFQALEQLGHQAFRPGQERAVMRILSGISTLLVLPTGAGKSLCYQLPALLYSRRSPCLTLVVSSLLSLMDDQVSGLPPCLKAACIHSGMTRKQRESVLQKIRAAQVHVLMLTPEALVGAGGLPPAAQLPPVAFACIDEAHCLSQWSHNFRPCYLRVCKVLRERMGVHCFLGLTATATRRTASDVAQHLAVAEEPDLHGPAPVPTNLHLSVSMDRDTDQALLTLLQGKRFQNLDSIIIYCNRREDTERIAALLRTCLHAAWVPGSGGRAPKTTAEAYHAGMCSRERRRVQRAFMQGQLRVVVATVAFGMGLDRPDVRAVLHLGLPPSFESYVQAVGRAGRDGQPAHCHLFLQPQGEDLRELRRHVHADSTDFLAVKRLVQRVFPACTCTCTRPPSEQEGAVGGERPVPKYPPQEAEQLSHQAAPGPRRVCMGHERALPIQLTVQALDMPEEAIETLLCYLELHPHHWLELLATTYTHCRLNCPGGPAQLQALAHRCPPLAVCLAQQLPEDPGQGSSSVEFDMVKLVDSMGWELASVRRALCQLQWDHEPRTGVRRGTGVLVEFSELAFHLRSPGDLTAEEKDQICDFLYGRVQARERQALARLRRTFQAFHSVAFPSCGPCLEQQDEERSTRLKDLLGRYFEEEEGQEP
Put plainly: MST; 5 mM Mg2+; no ATP mentioned; Kd only in figure; Buffer D: 10 mM HEPES pH 7.5, 50 mM NaCl, 5 mM MgCl2, 2 mM DTT (EMSA, 100 nM Cy3-DNA, 6% native PAGE); MST with 10 nM Cy5-DNA, buffer not restated; temperature. The following applies: protein: recombinant; tags: GST tag removed by TEV; label: 5' Cy5 on strand 1; 3' overhang 15 nt on strand 1, 15 bp duplex.

A further data set has as its target T2, RECQL4 427-1116 WT (Homo sapiens, UniProt O94761 427-1116).
T2 sequence: T1 sequence with S106P
Described as above. Particulars: protein: recombinant; tags: GST tag removed by TEV; label: 5' Cy5 on strand 1; 3' overhang 15 nt on strand 1, 15 bp duplex.

B1: OH-Cy5/CQ dsDNA with 3' ss overhang (MST) (dsDNA)
DNA 1: CCATTCCACCCTCTATTTTTTTTTTTTTTT
DNA 2: TAGAGGGTGGAATGG
B1: the binding result with RECQL4 427-1116 P532S and in the data set with RECQL4 427-1116 WT was “binds” each time.

Values taken from PMC12717039, “Novel mutations in the RECQL4 gene affect its helicase functions, interactions with the BLM helicase and chemotherapeutics-induced cell death”.
